Measured values published in paper PMC9503769, “Development and Evaluation of a Peptide Heterodimeric Tracer Targeting CXCR4 and Integrin αvβ3 for Pancreatic Cancer Imaging” (Pharmaceutics, 2022).
Where a SMILES comes first, the peptide text is derived from it. [ ]: non-standard residue; d: D form. The star is where a group is joined. X1 = O=C(O)CN1CCN(CC(=O)O)CC(Cc2ccc(NC(=S)*)cc2)N(CC(=O)O)CC1; 2Nal = N[C@@H](Cc1ccc2ccccc2c1)C(=O)O; dNMeK = CN[C@H](CCCCN)C(=O)O

Legend:
[1] = type: physicochemical
Method: ^68Ga-yG5-RGD, ^68Ga-yG5, or ^68Ga-RGD (740 kBq each) were separately added to a mixture of 1.0 mL n-octanol and 1.0 mL PBS, and then the mixtures were thoroughly vortexed for 5 min. Each sample was then centrifuged at 8000 rpm for 4 min. Each sample (100 μL) in organic phase and aqueous phase was collected separately in tubes, 5 tubes for each phase. Radioactive counts per tube of samples were measured by gamma counter, and logP values were calculated by the following formula: logP = log10 (counts in n-octanol/counts in PBS).

[2] = in vivo; design: species or system BALB/c nude mice; conditions: female, BALB/c nude, mouse, iv, total radioactivity
Method: All animal studies were conducted in accordance with the guidelines of the Institutional Animal Care and Use Committee of Tongji Medical College of Huazhong University of Science and Technology (2021-S2875; 1 February 2021). Female BALB/c nude mice (5–6 weeks old) were purchased from Beijing HFK Bioscience Co., Ltd. (Beijing, China) and were raised in a specific pathogen-free barrier system. For subcutaneous tumor xenograft model, 1 × 10^7 cells of BxPC3 or MX-1 in 100 μL PBS were injected into the right flanks of nude mice. Animal models were used for follow-up experiments when tumors reached 8~10 mm in diameter. The group setting was kept consistent with PET/CT scan. Each group of mice (n = 4) was injected via tail vein with probes (5.55~7.4 MBq, 150 μL) or co-injected with probes and blockers (10 mg/kg). Mice were euthanized by cervical dislocation under anesthesia 2 h post-injection. Subsequently, tissues of interest were collected, washed, weighed, and counted by a gamma counter. After decay correction, uptake of tissues was expressed as the percentage of injected dose per gram of tissue (%ID/g).

[3] = system: BxPC3 cells; test: Cell blocking experiment in BxPC3 cells; type: cell-based, human; conditions: co-incubated with 1000-fold molar excess of unlabeled RGD, AMD3100 or AMD3100 + RGD, all p < 0.001
Method: BxPC3 was used for cell blocking experiments. One group was taken as a control and added only ^68Ga-yG5-RGD (74 kBq/well, 50 μL, 1 pmol). Other groups were incubated with the blocking agents (AMD3100, RGD, AMD3100 + RGD unlabeled, 1000 pmol/10 μL, and ^68Ga-yG5-RGD (74 kBq/well, 50 μL). The rest of the procedures were carried out as described above.

[4] = Stability in PBS (radio-HPLC); type: physicochemical; conditions: 1.85 MBq in 300 μL, 2 h, 37 °C
Method: (§1) The ^68Ga-yG5-RGD (1.85 MBq, 5 μL) or ^68Ga-yG5 (1.85 MBq, 5 μL) was separately added to 300 μL of PBS or normal human fresh serum, incubated for 2 h at 37 °C. After incubation, the PBS sample was subjected to HPLC for radiochemical purity under the conditions described above. An equal volume of anhydrous acetonitrile was added to serum sample, mixed, and then centrifuged at 13,000 g for 10 min to fully precipitate protein. Following this, the supernatant was collected and authenticated by HPLC.

[5] = system: MX-1 cells; test: Cell uptake in MX-1 cells (negative control); type: cell-based, human; conditions: all time points, all p < 0.001
Method: (§2) BxPC3 cells in the logarithmic growth phase were harvested, counted, and seeded onto 24-well plate with 2 × 10^5 cells/well and cultured overnight. The original culture medium was discarded and fresh DMEM (serum and antibiotic-free) was then added to continue culturing for 0.5 h. Subsequently, each well was separately added ^68Ga-yG5-RGD, ^68Ga-yG5, or ^68Ga-RGD (74 kBq/well, 50 μL) and incubated for 30 min, 1 h, and 2 h (three replicate wells/each time point). At the end of incubation, the supernatant and the cell lysate were separately collected and radioactivity was measured by gamma counter. The cell uptake was expressed as the percentage of total applied radioactivity. Cell uptake study experiment was also performed using MX-1 as a control group for ^68Ga-yG5-RGD. The detailed experimental procedure was the same as above.

[6] = system: BxPC3 cells; test: Cell uptake in BxPC3 cells; type: cell-based, human; conditions: 74 kBq/well, 30 min, 1 h and 2 h, all p < 0.001, n = 3
Method: as §2

[7] = type: in vitro ADME, human
Method: as §1

Row | Compound | log P [1] | tissue to tissue ratio at 2 h ([2]; tumor/blood uptake ratio) | tissue to tissue ratio at 2 h ([2]; tumor/kidney uptake ratio) | tissue to tissue ratio at 2 h ([2]; tumor/liver uptake ratio) | tissue to tissue ratio at 2 h ([2]; tumor/muscle uptake ratio) | cellular uptake in BxPC3 cells with blockers [3] | proportion of intact tracer [4] | cellular uptake in MX-1 cells [5] | cellular uptake in BxPC3 cells [6] | metabolic-free Gallium-68 observed [7]
1 | N=C(N)NCCC[C@@H]1NC(=O)[C@H](CCCCNC(=S)Nc2ccc(CC3CN(CC(=O)O)CCN(CC(=O)O)CCN3CC(=O)O)cc2)NC(=O)[C@@H](Cc2ccc(O)cc2)NC(=O)[C@H](CC(=O)O)NC(=O)CNC1=O (some centres unmarked) [^68Ga-RGD, metal not drawn, reference compound] | −3.22 ± 0.02 | 10.8 ± 2.04 | 0.77 ± 0.06 | 0.96 ± 0.15 | 8.61 ± 0.61 | – | – | – | – | –
2 | CN1C(=O)[C@@H](Cc2ccc(O)cc2)NC(=O)CNC(=O)[C@H](Cc2ccc3ccccc3c2)NC(=O)[C@H](CCCNC(=N)N)NC(=O)[C@H]1CCCCNC(=S)Nc1ccc(CC2CN(CC(=O)O)CCN(CC(=O)O)CCN2CC(=O)O)cc1 (some centres unmarked) [^68Ga-yG5, metal not drawn] (cyclo([2Nal]G[dY][dNMeK](X1)R)) | −0.35 ± 0.09 | 2.01 ± 0.43 | 0.34 ± 0.06 | 0.13 ± 0.04 | 3.86 ± 1.29 | – | – | – | – | –
3 | CN1C(=O)[C@@H](Cc2ccc(O)cc2)NC(=O)CNC(=O)[C@H](Cc2ccc3ccccc3c2)NC(=O)[C@H](CCCNC(=N)N)NC(=O)[C@H]1CCCCNC(=O)C(CCn1nnc2c1CCC1C(CC2)C1COC(=O)NCCOCCOCCOCCOCCC(=O)NCCCC[C@@H]1NC(=O)[C@@H](Cc2ccc(O)cc2)NC(=O)[C@H](CC(=O)O)NC(=O)CNC(=O)[C@H](CCCNC(=N)N)NC1=O)N1CCN(CC(=O)O)CCN(CC(=O)O)CC1 (some centres unmarked) [^68Ga-yG5-RGD, metal not drawn] | −2.47 ± 0.04 | 14.5 ± 0.8 | 0.9 ± 0.29 | 0.46 ± 0.1 | 13.6 ± 0.81 | significantly decreased | greater than 99% | significantly lower than that of BxPC3 cells | significantly higher than that of ^68Ga-RGD and ^68Ga-yG5 | less than 1%
